Experimental data reported in patent US20200241008.

Columns and labels:
[1] = system: indicator molecule containing the cleavable sequence (GPQGIFGQ) with a terminal biotin group connected via a polyethylene glycol spacer/linker, intact
[2] = system: fluorescence resonance energy transfer (FRET) peptide of the commercial MMP-9 activity assay kit

active MMP-9 (Alere San Diego), sequence (chain, as listed by the source): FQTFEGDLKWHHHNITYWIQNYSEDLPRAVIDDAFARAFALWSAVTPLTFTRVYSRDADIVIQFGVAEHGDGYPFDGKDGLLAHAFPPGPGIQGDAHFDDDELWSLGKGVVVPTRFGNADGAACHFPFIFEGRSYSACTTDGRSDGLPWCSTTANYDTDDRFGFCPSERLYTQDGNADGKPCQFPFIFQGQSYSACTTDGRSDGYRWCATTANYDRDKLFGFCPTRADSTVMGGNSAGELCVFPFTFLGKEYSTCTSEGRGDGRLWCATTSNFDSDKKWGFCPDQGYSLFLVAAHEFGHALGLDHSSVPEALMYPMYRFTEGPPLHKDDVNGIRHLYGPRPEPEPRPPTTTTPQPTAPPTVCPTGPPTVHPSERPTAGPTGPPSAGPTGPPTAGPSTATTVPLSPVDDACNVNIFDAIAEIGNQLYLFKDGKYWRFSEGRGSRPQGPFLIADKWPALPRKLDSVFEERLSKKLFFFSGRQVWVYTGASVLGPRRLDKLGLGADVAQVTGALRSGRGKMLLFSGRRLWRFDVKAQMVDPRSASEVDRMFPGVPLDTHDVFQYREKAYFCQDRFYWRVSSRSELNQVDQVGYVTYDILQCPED
MMP10 (Enzo), sequence (chain, as listed by the source): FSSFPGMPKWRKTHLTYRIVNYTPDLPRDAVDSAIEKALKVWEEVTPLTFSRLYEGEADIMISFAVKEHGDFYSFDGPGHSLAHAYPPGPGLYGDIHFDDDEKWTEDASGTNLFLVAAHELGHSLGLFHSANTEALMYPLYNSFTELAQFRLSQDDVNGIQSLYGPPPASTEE
MMP3 (Enzo), sequence (chain, as listed by the source): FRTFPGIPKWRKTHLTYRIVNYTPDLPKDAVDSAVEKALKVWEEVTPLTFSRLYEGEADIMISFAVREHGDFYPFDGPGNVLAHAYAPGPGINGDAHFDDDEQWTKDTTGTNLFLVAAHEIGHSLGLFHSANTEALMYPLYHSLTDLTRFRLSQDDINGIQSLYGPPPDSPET
MMP8 (Enzo), sequence (chain, as listed by the source): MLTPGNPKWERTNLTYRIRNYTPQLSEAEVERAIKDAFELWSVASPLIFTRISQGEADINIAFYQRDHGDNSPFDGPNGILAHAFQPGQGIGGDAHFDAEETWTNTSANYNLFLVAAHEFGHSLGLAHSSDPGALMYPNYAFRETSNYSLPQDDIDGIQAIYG
MMP2 (Enzo), sequence (chain, as listed by the source): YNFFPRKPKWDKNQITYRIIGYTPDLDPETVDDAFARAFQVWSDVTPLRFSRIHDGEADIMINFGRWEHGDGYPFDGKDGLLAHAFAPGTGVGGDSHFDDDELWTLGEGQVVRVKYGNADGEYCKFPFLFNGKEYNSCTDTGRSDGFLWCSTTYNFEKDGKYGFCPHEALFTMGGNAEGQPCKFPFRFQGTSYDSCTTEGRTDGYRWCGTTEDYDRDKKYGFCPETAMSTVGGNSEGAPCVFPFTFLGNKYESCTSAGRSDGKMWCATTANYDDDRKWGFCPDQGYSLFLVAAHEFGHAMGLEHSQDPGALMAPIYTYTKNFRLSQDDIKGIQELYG
MMP9 (Enzo), sequence (chain, as listed by the source): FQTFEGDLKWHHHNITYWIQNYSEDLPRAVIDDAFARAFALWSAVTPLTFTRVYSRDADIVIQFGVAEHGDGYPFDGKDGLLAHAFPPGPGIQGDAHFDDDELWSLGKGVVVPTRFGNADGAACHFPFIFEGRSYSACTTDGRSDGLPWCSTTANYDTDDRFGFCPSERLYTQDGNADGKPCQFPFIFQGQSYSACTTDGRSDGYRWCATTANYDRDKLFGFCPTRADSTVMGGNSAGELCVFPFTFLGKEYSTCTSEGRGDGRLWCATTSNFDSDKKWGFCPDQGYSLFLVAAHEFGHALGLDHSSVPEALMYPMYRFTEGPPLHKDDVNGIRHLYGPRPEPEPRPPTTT

For MMP3 (Enzo), the reader value at 0.5 µg/ml MMP (lateral flow) [1] was 336 reader units.

Substance MMP10 (Enzo) has a reader value at 0.5 µg/ml MMP (lateral flow) [1] of 444 reader units.

For MMP2 (Enzo), the reader value at 0.5 µg/ml MMP (lateral flow) [1] was 1610 reader units.

Work on MMP8 (Enzo) yielded a reader value at 0.5 µg/ml MMP (lateral flow) [1] of 1140 reader units.

With MMP9 (Enzo) the reader value at 0.5 µg/ml MMP (lateral flow) [1] was 3840 reader units.

In the case of active MMP-9 (Alere San Diego), the Reference assay read-out at 0 ng/ml MMP9 (blank) [2] is reported as 3820, the Reference assay read-out at 3.90625 ng/ml MMP9 [2] is reported as 7600 and the Reference assay read-out at 7.8125 ng/ml MMP9 [2] is reported as 13100. It also gave a Reference assay read-out at 15.625 ng/ml MMP9 [2] of 31300, a Reference assay read-out at 31.25 ng/ml MMP9 [2] of 62300 and a Reference assay read-out at 62.5 ng/ml MMP9 [2] of 113000. The Reference assay read-out at 125 ng/ml MMP9 [2] was 163000, the Reference assay read-out at 250 ng/ml MMP9 [2] was 204000 and the OD405 at 0.39 ng/ml MMP9 (ELISA, streptavidin plate, CF1522-AP) [1] was 0.14 OD405. The OD405 at 0.78 ng/ml MMP9 (ELISA, streptavidin plate, CF1522-AP) [1] was 0.14 OD405, the OD405 at 1.56 ng/ml MMP9 (ELISA, streptavidin plate, CF1522-AP) [1] was 0.14 OD405 and the OD405 at 3.13 ng/ml MMP9 (ELISA, streptavidin plate, CF1522-AP) [1] was 0.13 OD405. For the same substance, the OD405 at 6.25 ng/ml MMP9 (ELISA, streptavidin plate, CF1522-AP) [1] was 0.17 OD405, the OD405 at 12.50 ng/ml MMP9 (ELISA, streptavidin plate, CF1522-AP) [1] was 0.18 OD405 and the OD405 at 25.00 ng/ml MMP9 (ELISA, streptavidin plate, CF1522-AP) [1] was 0.27 OD405. The OD405 at 50.00 ng/ml MMP9 (ELISA, streptavidin plate, CF1522-AP) [1] was 0.5 OD405, the Ultimate ELTABA reader value at 3.90625 ng/ml MMP9 (lateral flow) [1] was 413 reader units and the Ultimate ELTABA reader value at 7.8125 ng/ml MMP9 (lateral flow) [1] was 524 reader units. The Ultimate ELTABA reader value at 15.625 ng/ml MMP9 (lateral flow) [1] was 882 reader units, the Ultimate ELTABA reader value at 31.25 ng/ml MMP9 (lateral flow) [1] was 2030 reader units and the Ultimate ELTABA reader value at 62.5 ng/ml MMP9 (lateral flow) [1] was 3830 reader units. For the same substance, the Ultimate ELTABA reader value at 125 ng/ml MMP9 (lateral flow) [1] was 5580 reader units, the Ultimate ELTABA reader value at 250 ng/ml MMP9 (lateral flow) [1] was 6220 reader units and the “detectable limit for MMP-9 (lateral flow, sample volume 75 µl)” value [1] was “approximately 4 ng/ml”. The reader value at 0.9765625 ng/ml MMP9 (lateral flow) [1] was 338 reader units, the reader value at 0.98 ng/ml MMP9 (lateral flow) [1] was 338 reader units and the reader value at 1.95 ng/ml MMP9 (lateral flow) [1] was 343 reader units. For the same substance, the reader value at 1.953125 ng/ml MMP9 (lateral flow) [1] was 343 reader units, the reader value at 3.90625 ng/ml MMP9 (lateral flow) [1] was 413 reader units and the reader value at 3.91 ng/ml MMP9 (lateral flow) [1] was 413 reader units. The reader value at 7.81 ng/ml MMP9 (lateral flow) [1] was 524 reader units, the reader value at 7.8125 ng/ml MMP9 (lateral flow) [1] was 524 reader units and the reader value at 15.625 ng/ml MMP9 (lateral flow) [1] was 882 reader units. It also gave a reader value at 15.63 ng/ml MMP9 (lateral flow) [1] of 882 reader units, a reader value at 31.25 ng/ml MMP9 (lateral flow) [1] of 2030 reader units and a reader value at 62.5 ng/ml MMP9 (lateral flow) [1] of 3830 reader units. It also gave a reader value at 62.50 ng/ml MMP9 (lateral flow) [1] of 3830 reader units, a reader value at 125 ng/ml MMP9 (lateral flow) [1] of 5580 reader units and a reader value at 250 ng/ml MMP9 (lateral flow) [1] of 6220 reader units. For the same substance, the reader value at 500 ng/ml MMP9 (lateral flow) [1] was 6730 reader units, the reader value at 1000 ng/ml MMP9 (lateral flow) [1] was 6770 reader units and the “sensitivity of the MMP9 standard curves (ELISA and lateral flow)” value [1] was “sensitivity down to 4 ng/ml”.
